Assay results as given in the supplement of paper PMC12042874.
± gives the uncertainty stated by the source.

experiment: amyloid nucleation score (Sup35N fusion, yeast selection) (log enrichment); library NNK3; higher = more nucleation; inactive = no reads after selection
How it was run: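 DiMSum was used to calculate nucleation scores as log enrichment of output over input reads, centred on the mode score of non-aggregating sequences. Sequences with fewer than 100 input reads were not scored. Input and output came from Illumina sequencing of plasmid inserts in psi-negative yeast expressing peptides of 20 random codons fused to Sup35N, induced 24 hours with 100 μM copper sulfate and then grown 7 days at 30°C on medium lacking adenine and uracil.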

| Substance | amyloid nucleation score |
| --- | --- |
| FTSDGEYNRVLPGRSQGASF | -0.92 ± 2.5 |
| WKLGLK | inactive |
| CTVPMPDSVNVSAE | inactive |
| SVLVDY | inactive |
| DIRSGTLC | inactive |
| SAYKKASVWGLRLQSSRS | inactive |
| LLMDGLIRFWS | inactive |
| KREAFNQALADNHQLQMLYE | 0.615 ± 0.12 |
| RVPGVCVYLCNEVACSTLCI | 2.03 ± 0.079 |
| QVSFM | inactive |
| GSGMGL | inactive |
| LILIRAVSG | inactive |
| SDYGSFLEFH | -0.27 ± 0.79 |
| TSTELFRSGSVLRKPRMSSA | -0.255 ± 1.1 |
| RCLGLML | inactive |
| IKFSYKCS | inactive |
| YLSDVLSLWCSVQIWSGLYC | inactive |
| TKFNG | 0.709 ± 0.19 |
| DPVIYRCSLVLLYSERSLPY | inactive |
| PWLLVIIVLFGLYCRM | inactive |
| FSWFHRRSYSVVTSLCLMGR | inactive |
| RRMTSYFL | inactive |
| ICDDMVGVC | inactive |
| ILVLRHA | inactive |

| Substance | amyloid nucleation score |
| --- | --- |
| DLAFGMSFDWT | inactive |
| CYLVLFGAM | inactive |
| TCSKPGSSSMHSAVGKTMSA | inactive |
| ACTRYCWHYFVNIVWCESDF | inactive |
| NGVLASWWC | inactive |
| LVVRLIDF | inactive |
| LAVLIVDKPYADETHRLLVR | inactive |
| SFYGSIQGQNLLTLLNMKTR | inactive |
| NCIYLVLN | inactive |
| GNVMSRRDTLWIVIYVRFRH | inactive |
| HTLLHEF | inactive |
| FMGVT | inactive |
| VESLSVSAAL | inactive |
| CGYEVIGNIFGM | inactive |
| FFWECYRQINCSINW | inactive |
| DISIPVLKRSFTCSMAYHC | inactive |
| TYRRFMDNNGVIILILPNER | 1.74 ± 0.072 |
| ILSLPRRNYSKTVFNRLKAE | inactive |
| SFCRRNISKVFYNFNNCATA | inactive |
| RACML | inactive |
| VMVSPPFTYWSRYVDYEYGE | inactive |
| RMFMWENEMDLSTSRVKGYG | inactive |
| RKEVLYSYRNHLK | inactive |
| GRGIYGIIARASAPVRRSLV | inactive |

| Substance | amyloid nucleation score |
| --- | --- |
| QARRSIYSISECGGGI | 0.234 ± 0.33 |
| PCSGDSLLVSNTKNRSL | inactive |
| WRVLFSILSVTAVWATYAGL | inactive |
| SHKPLDRYLIEWLGLQELLT | inactive |
| HDYDAIRRLSRMCDVVEYSR | inactive |
| QYCDSMTLINQPAAIRGLLW | inactive |
| MPKAGVSTVSLSHRKVLTLP | 0.174 ± 1 |
| AVLHNMGFSHILAQLV | inactive |
| LCWKFAPRMLVYMMGY | inactive |
| GLRDMGDKYVYMVSGGCIYG | 2.19 ± 0.069 |
| MFTGGMFRKVTIQIL | inactive |
| LPLMDKLR | inactive |
| CGSRLYRCETAMMVLRIRSG | inactive |
| FVYWLILYLRRVAERR | inactive |
| WFNLCYFG | 2.5 ± 0.069 |
| ACYFWS | inactive |
| WLNVLNSYSDRSYLKETRLR | inactive |
| VSWYCCTFAAFILWNSSWCI | inactive |
| PIFFMIVYAVATYCKEGSHS | inactive |
| DGARLCSAAMLAGQGLDEDG | inactive |
| QGSHRGMKITGISWTVLGYW | inactive |
| KLCDCVMLLFTLDTRIGNVL | 0.053 ± 0.7 |
| IAFATFVVTFIMMEEMFFKN | inactive |
| LLVQLLLCKLKSMRLCCTVF | inactive |

| Substance | amyloid nucleation score |
| --- | --- |
| YVPIRSFVGEVLGSGDR | 0.157 ± 0.59 |
| YDWKNL | inactive |
| LSISIMWCFIFGYIFMCSRC | inactive |
| CALYFVWAWWERRRKMYYA | inactive |
| WAKNHPDLIMLIFADTISYN | 2.31 ± 0.058 |
| ILLCRKYWFFRFTMVV | inactive |
| YFSISLLTSK | inactive |
| TLFQSFRELLRNGVFCLRTM | inactive |
| AVCPSISTLSCGQ | -0.055 ± 0.82 |
| FENSLFYTKVMDPCSFVWYW | inactive |
| LEGSYPRADIAVNVFTVFTQ | inactive |
| FDMTL | inactive |
| VGTIVFVFSFASWPRVGYIR | inactive |
| SKFIRRT | inactive |
| HNNYHYIVRSFVGI | 1.01 ± 0.28 |
| IFGCFSCSVSMFIDNAVMSL | 2.55 ± 0.066 |
| FMKILQVTDWDPGSVYNSSN | inactive |
| SIDHVLWYNIGRVGSCWSLR | -0.188 ± 0.27 |
| CFHVILFK | 1.11 ± 0.095 |
| LNSFFAAIHILMGHFKRILS | inactive |
| VRGKRTSLWDIKVDYSPDTV | inactive |
| THDVFSSVMLGSFSLSSTTN | inactive |
| TFFNFVDGTSVWRFAGRHIY | inactive |
| FDFTGYLKCLKCTSSCTMVL | inactive |

| Substance | amyloid nucleation score |
| --- | --- |
| FITTCRILWVRCTGIVNDFL | inactive |
| MMRWIDVGYLVDLYSLRISG | inactive |
| HVSAARMFSSYDPRKPGENM | inactive |
| QDFRLLSALRF | inactive |
| KADECS | inactive |
| VCGILAISGLLT | inactive |
| YGNLFSYAVMSRDLVSWGPV | inactive |
| NVYLKLTA | inactive |
| SCILHYSDYATWLGRYVKVI | inactive |
| NSRNLR | inactive |
| SRWTCLNFVWSTSQHLQWN | inactive |
| TFSYGSFLRSYLLMC | inactive |
| CLFSLLYPCGWINYSNSNMS | 0.437 ± 0.17 |
| GMSICVPSKS | 0.179 ± 0.34 |
| RISVAGLCASEAVAKCLRRG | inactive |
| LSDSY | inactive |
| FLVGPPNL | inactive |
| RFQCWVWSQ | inactive |
| MSWLKQGLTDR | inactive |
| ITCGIKIFF | 2.76 ± 0.068 |
| YFIALCINSDKPPVHGVAVV | inactive |
| SVLHLWGLDYFNGEYTMRKG | 1.02 ± 0.17 |
| MSPWSRMF | inactive |
| VWSFGLLVS | -0.17 ± 1.1 |

| Substance | amyloid nucleation score |
| --- | --- |
| LVGGTTLLIPVCS | inactive |
| YNNVCSEAEWS | inactive |
| WPSGFCYR | inactive |
| DNCFRKWT | inactive |
| WVYWRKSSILSTHRNIVKHW | inactive |
| CRLYEDIGISYMVATNQLEY | inactive |
| DECVYLFKNSYSVIILMFFK | inactive |
| RYLIVVFASC | inactive |
| QFIINDSFYINQNNRRYSKV | inactive |
| NYKLQKHAWMNYSAHQECLF | inactive |
| NGWLLTRLSMHLTFGIYMLV | inactive |
| LLVLPGGVSGVNLRDEWTDF | inactive |
| GTNFALRHGMIILSRLWAYW | inactive |
| VNQLPRVSGAPIGLLWVCVK | inactive |
| YSGMGCFSAWSMW | inactive |
| HFNRVLVPYAFSFIGKMEWF | inactive |
| PPCMYTMYCEYNVLQSSSKY | 1.64 ± 0.082 |
| ISKWESKSSSGLDFL | inactive |
| SVCWVFYCFFSLWCRLSESR | inactive |
| TIFGDCAEYSYVVLFINLFI | 2.1 ± 0.098 |
| VTICISPAHLFAS | inactive |
| VYLKLSILFSCAFSN | inactive |
| IYCYRLALF | inactive |
| FDLETSLL | inactive |

| Substance | amyloid nucleation score |
| --- | --- |
| CLTLMALAKGFGVWGG | -0.176 ± 0.92 |
| GIYPSHHWGI | inactive |
| VPTMMRVR | inactive |
| VNPCLYGPYSSNNCSRSYFV | inactive |
| LDTDGSICCCPRAIAHLL | inactive |
| GAFSWCSRVVDMVRLTRCDH | inactive |
| SDRFHVAHNNFLMRGKGFRT | inactive |
| KWNCHLVLPLWIPGLVMMGR | inactive |
| RHSNDCMNFEVIILIDSCLE | inactive |
| PFNYVVRWESKLQSHYFGLY | inactive |
| LNCIFLVKVIYWTRFTWSTY | inactive |
| RWLPMSNVAGGQKRKMLASL | inactive |
| YYGLAVWSERNVRWMGEGEA | inactive |
| HSDILRFCLMVNKDTVHSVL | inactive |
| GGAKVLTV | inactive |
| HVVVKK | inactive |
| LCTNLYWVQFIMEPEEGVIQ | 1.54 ± 0.082 |
| FTTCMNYIRRLNRKAPNKCR | inactive |
| KALWCGYE | inactive |
